B1: Fc fragment of human IgG2 (IdeS-cleaved) (domain or fragment)
chain: GPSVFLFPPKPKDTLMISRTPEVTCVVVDVSHEDPEVQFNWYVDGVEVHNAKTKPREEQFNSTFRVVSVLTVVHQDWLNGKEYKCKVSNKGLPAPIEKTISKTKGQPREPQVYTLPPSREEMTKNQVSLTCLVKGFYPSDIAVEWESNGQPENNYKTTPPMLDSDGSFFLYSKLTVDKSRWQQGNVFSCSVMHEALHNHYTQKSLSLSPGK
modifications: asparagine (N)-linked glycoforms G0F, G1F, G2F (told of the intact IgGs)

Legend:
[1] = molecular target: Fc fragment of human IgG4 (IdeS-cleaved; identical for IgG4 and IgG4Pro) (human); assay: AUC; sedimentation velocity, absorbance 280 nm, 20 °C, 40,000 rpm, three concentrations in 1:3 dilutions from 0.5 mg/mL (0.5, 0.167, 0.056 mg/mL); Figure 2 in 10 mM sodium acetate, 50 mM NaCl, pH 5.0; oligomer told from sw against ~50 kDa
[2] = molecular target: the molecule itself; assay: as above

Molecule	stoichiometry N [1]	stoichiometry N [2]
Fc fragment of human IgG4 (IdeS-cleaved; identical for IgG4 and IgG4Pro) (domain or fragment)	2	
B1		2

— paper PMC6640702, “IgG Charge: Practical and Biological Implications” (Antibodies, 2019)
